The values that follow come from patent US20240052061A1 (published 2024).

The target in one assay is r3E9. As to the kind of experiment: flow cytometry; RT4 cells; rabbit mAb.
Assay [1] deals with T1, human ecto-nucleoside triphosphate diphosphohydrolase-3 (NTPDase3) (human, UniProt O75355 1-529).
T1 chain: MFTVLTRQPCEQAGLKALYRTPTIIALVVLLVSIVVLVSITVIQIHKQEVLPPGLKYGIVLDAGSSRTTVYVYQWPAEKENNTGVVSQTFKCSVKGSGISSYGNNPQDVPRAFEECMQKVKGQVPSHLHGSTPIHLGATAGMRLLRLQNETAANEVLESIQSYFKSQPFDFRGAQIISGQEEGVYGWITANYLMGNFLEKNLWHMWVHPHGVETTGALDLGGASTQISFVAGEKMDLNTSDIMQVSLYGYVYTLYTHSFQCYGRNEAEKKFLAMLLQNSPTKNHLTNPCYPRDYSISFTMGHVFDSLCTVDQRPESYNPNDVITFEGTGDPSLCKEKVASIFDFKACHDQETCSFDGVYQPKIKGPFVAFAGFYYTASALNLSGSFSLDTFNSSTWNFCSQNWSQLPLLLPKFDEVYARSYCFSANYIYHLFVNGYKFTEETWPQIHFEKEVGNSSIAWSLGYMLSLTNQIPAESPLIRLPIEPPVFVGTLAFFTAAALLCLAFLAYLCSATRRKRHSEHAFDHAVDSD
As to the kind of experiment: flow cytometry; CHO-hENTPD3 cells, 2h at 37°C.

Assay [2] deals with T1, human ecto-nucleoside triphosphate …. As to the kind of experiment: flow cytometry; HEK293T-hENTPD3 cells.
Assay [3] has the same target. As to the kind of experiment: flow cytometry; HEK293T-hENTPD3 cells.
For assay [4] the target is unchanged. As to the kind of experiment: flow cytometry; CHO-hENTPD3 cells, 20 min at 4°C.
The target is the same in assay [5]. As to the kind of experiment: flow cytometry; COS7-hENTPD3 cells.
Assay [6] has the same target. As to the kind of experiment: flow cytometry; CHO-hENTPD3 cells.
The target is the same in assay [7]. As to the kind of experiment: flow cytometry; COS7-hENTPD3 cells.
Assay [8] shares this target. As to the kind of experiment: flow cytometry; CHO-hENTPD3 cells.
The target is the same in assay [9]. As to the kind of experiment: flow cytometry; CHO-hENTPD3 cells.
For assay [10] the target is unchanged. As to the kind of experiment: flow cytometry; HEK293T-hENTPD3 cells.
For assay [11] the target is unchanged. As to the kind of experiment: flow cytometry; RT4 cells.
For assay [12] the target is unchanged. As to the kind of experiment: flow cytometry; COS7-hENTPD3 cells.

B1: hENTPD3 (RT4 cells) (enzyme)
chain: T1 chain
In the assay with r3E9, B1 yielded a Kd of 0.22 nM.

B2: 38D5 Hu/Ra (antibody, V domains shown)
VH: QELVESGGGLVQPGGSLKLSCKASGIDFNNYGISWVRQAPGKGLEWIAYKYPGFGIRNYANSVKGRFTISSDNAQNTVFLQMTSLAASDTATYFCARGARYRHDDYGALNLWGPGTLVTVSS
VL: DIVMTQTPPSVSAAVGGTVTINCQASQSVTNLLAWYQQKPGQPPKLLIYGASNLESGVPSRFRGSGSGTEFTLTISGMKAEDAATYYCQSGYYSANTFGAGTKVGIKR
Take B2: the equilibrium dissociation constant (Kd) in assay [1] was 2.54 nM; in [2], 2.22 nM; in assay [3], 6.56 nM; in [4], 22.3 nM; in assay [5] it was 0.96 nM; in assay [6] it was 26.6 nM. Further, the dissociation constant (Kd) was 1.93 nM in assay [7] and 1.11 nM in [8].

B3: 8E1 Hu/Ra (antibody, V domains shown)
VH: QSVEESGGRLVTPGTPLTLTCTVSGFSLSSYAMGWVRQAPGKGLEFIGIISYSGNTYYASWAKGRFPISKTSSTTVDLKMTSPTTEDTANYFCARARYGGYSTNSYYLNIWGPGTLVTVSS
VL: DVVMTQTPASVEAAVGGTVTINCQASENIYRVLAWYQQKPGQRPKLLIYGASNLESGVPSRFKGSGSGTDYTLTISDLECDDAATYYCQGVVYNSDDSAFGGGTEVVVKG
Turning to B3, the Kd in assay [1] worked out at 1.02 nM; in assay [2], 0.33 nM; in [9] it was 0.43 nM; in assay [10] it was 2.76 nM; in assay [4], 1.82 nM; in assay [11] it was 0.06 nM. The dissociation constant (Kd) in assay [6] turned out to be 1.59 nM; in assay [12], 0.31 nM; in [7], 0.54 nM.
